Values quoted from earlier work, collected in publication PMC4632993.

Molecular target: ubiquitin (Homo sapiens) (UniProt P0CG47)

MDA-9/Syntenin, sequence (O00560 2-298): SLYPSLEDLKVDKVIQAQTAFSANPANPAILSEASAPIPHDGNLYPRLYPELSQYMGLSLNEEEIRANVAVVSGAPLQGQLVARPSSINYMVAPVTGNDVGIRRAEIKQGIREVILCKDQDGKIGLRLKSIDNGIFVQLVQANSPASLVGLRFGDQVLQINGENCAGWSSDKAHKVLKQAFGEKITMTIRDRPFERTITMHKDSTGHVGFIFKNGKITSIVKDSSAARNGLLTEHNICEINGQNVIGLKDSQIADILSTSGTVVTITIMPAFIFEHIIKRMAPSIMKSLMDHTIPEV

Kd: 27.3 µM
Substance: MDA-9/Syntenin (from UniProt O00560)
